Laboratory results reported in publication PMC10746276, “CsrA coordinates the expression of ribosome hibernation and anti-σ factor proteins”.
Changes are numbered by the printed parent chain.

Key:
CsrA-His6 [1] = target: T1, CsrA-His6 (Escherichia coli, UniProt P69913 1-61); test: EMSA; EMSA: 0.1 nM RNA, 10 mM MgCl2, 100 mM KCl, 32.5 ng yeast RNA, 20 mM DTT, 7.5% glycerol, 4 U SUPERasin, 30 min 37 C (pH not given); footprint: 2 nM RNA, 10 mM Tris-HCl pH 7.5, 10 mM MgCl2, 100 mM KCl, yeast RNA, acetylated BSA, 37 C; settings: protein: recombinant; tags: His6 (C-terminal by name); chain copies: 2; label: 5'-32P
CsrA-His6 [2] = target: T1, CsrA-His6; test: EMSA; side-by-side with A(-15)G; differs from 95 nM in Fig. 6, RNA may differ; EMSA: 0.1 nM RNA, 10 mM MgCl2, 100 mM KCl, 32.5 ng yeast RNA, 20 mM DTT, 7.5% glycerol, 4 U SUPERasin, 30 min 37 C (pH not given); footprint: 2 nM RNA, 10 mM Tris-HCl pH 7.5, 10 mM MgCl2, 100 mM KCl, yeast RNA, acetylated BSA, 37 C; settings: protein: recombinant; tags: His6 (C-terminal by name); chain copies: 2; label: 5'-32P
CsrA-His6 [3] = target: T1, CsrA-His6; test: EMSA; Hill coefficient 4.5; EMSA: 0.1 nM RNA, 10 mM MgCl2, 100 mM KCl, 32.5 ng yeast RNA, 20 mM DTT, 7.5% glycerol, 4 U SUPERasin, 30 min 37 C (pH not given); footprint: 2 nM RNA, 10 mM Tris-HCl pH 7.5, 10 mM MgCl2, 100 mM KCl, yeast RNA, acetylated BSA, 37 C; settings: protein: recombinant; tags: His6 (C-terminal by name); chain copies: 2; label: 5'-32P; hairpin (mFold)
CsrA-His6 [4] = target: T1, CsrA-His6; test: EMSA; no effect on affinity vs WT; EMSA: 0.1 nM RNA, 10 mM MgCl2, 100 mM KCl, 32.5 ng yeast RNA, 20 mM DTT, 7.5% glycerol, 4 U SUPERasin, 30 min 37 C (pH not given); footprint: 2 nM RNA, 10 mM Tris-HCl pH 7.5, 10 mM MgCl2, 100 mM KCl, yeast RNA, acetylated BSA, 37 C; settings: protein: recombinant; tags: His6 (C-terminal by name); chain copies: 2; label: 5'-32P

T1 sequence (P69913 whole entry): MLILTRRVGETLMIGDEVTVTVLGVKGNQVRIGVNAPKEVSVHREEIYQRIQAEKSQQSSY

B1: yqjC leader WT (ssRNA)
RNA: GGGCGGUGGUUAACACUACCGCUUCGUUGUCUGGACAAUCGUUCCUUUGUAAUAGGUCCGAAUCACAAUGGAAGGUUCAAGAAUGAAAUACCGCAUCGCUUUAGCUGUU
Kd (CsrA-His6 [1]): 95 ± 7 nM
Kd (CsrA-His6 [2]): 15 ± 9 nM

B2: elaB leader GGA to CCA (ssRNA)
RNA: GGGUUUUACGCAAAUCCAGAACGAGAAUGUCUAAUCAG
binding result (CsrA-His6 [1]): no binding

B3: elaB leader WT (ssRNA)
RNA: B2 RNA with C16G, C17G
Kd (CsrA-His6 [1]): 20 ± 8 nM

B4: yqjD BS2-BS3 fragment WT (structured_RNA)
RNA: GCGCAGGAAGAGCUGAAAAAGCUGGAAGCGC
Kd (CsrA-His6 [3]): 89 ± 6 nM

B5: yqjC leader GGA1 mutant (GGA to AAA) (ssRNA)
RNA: B1 RNA with G33A, G34A
binding result (CsrA-His6 [4]): binds
